11 molecules from patent publication US20230227572A1 (HEFEI TG IMMUNOPHARMA, published 2023) can be followed below.

Assay [1] has as its target T1, recombinant human PVRIG-human IgG1 Fc fusion protein (human).
T1 construct: no linker is told; also called human PVRIG-Fc fusion protein
Nature of the assay: ELISA, plate coated with human PVRIG-human IgG1 Fc at 1.0 µg/ml, HRP goat anti-mouse IgG, OD450. The procedure: The activity of the murine antibodies from different clones in binding to the human PVRIG-Fc fusion protein was evaluated by ELISA. The experimental procedure was as follows:
The recombinant human PVRIG-human IgG1 Fc fusion protein was diluted to 1.0 μg/ml in 1×PBS (phosphate buffer), the dilution was plated onto a 96-well ELISA plate overnight at 4° C. by 100 μl/well, the plate was washed 3 times with PBST (0.05% Tween20-PBS) and blocked with 1% BSA, followed by incubation at 37° C. for 2 h. The plate was washed 3 times with PBST, and murine antibodies (Antibody 1, Antibody 2, Antibody 3, or Antibody 4) diluted in multiple ratios were respectively added to set 8 concentrations, and the mixture was incubated at 37° C. for 1 h using mouse IgG1 (available from Biolegend) as a negative control at 100 μl/well. The plate was washed 3 times with PBST, and 100 μl of horseradish peroxidase (HRP)-labeled goat anti-mouse IgG antibody (available from BOSTER, 1:10,000 dilution) was added to each well, and the mixture was incubated at 37° C. for 1 h. After washing, 100 μl of TMB substrate solution was added to each well for developing for 10 to 15 min in the dark, 100 μl of stop solution (2M H2SO4) was added to each well, the solution was measured with a microplate reader immediately after the reaction stopped, and the absorbance at 450 nm (OD450) was read.
Target sequence in this assay (chain, as listed by the source limits assumed): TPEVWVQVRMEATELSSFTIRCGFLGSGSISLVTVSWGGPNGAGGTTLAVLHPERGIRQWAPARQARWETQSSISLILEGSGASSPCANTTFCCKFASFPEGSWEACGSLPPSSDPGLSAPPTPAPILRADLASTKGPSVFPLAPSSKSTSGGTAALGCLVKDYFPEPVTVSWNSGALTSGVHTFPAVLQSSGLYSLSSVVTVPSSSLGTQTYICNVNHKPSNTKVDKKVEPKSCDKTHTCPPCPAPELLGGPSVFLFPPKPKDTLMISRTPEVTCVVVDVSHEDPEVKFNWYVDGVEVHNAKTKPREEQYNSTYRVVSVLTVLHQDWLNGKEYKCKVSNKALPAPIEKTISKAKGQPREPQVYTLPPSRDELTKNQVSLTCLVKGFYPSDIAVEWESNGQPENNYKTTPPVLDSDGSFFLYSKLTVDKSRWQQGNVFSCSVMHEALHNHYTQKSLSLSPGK

The target in assay [2] is T1, recombinant human PVRIG-human IgG1 Fc …. Nature of the assay: SPR (Biacore), human PVRIG-human IgG1 Fc on chip, antibody in flow, 1:1 model. The procedure:
The binding kinetics and dissociation equilibrium constant (KD) of the antibodies of the present disclosure to human PVRIG were determined using the surface plasmon resonance (Biacore) assay. Briefly, a CMS chip was coated with human PVRIG-human IgG1 Fc fusion protein, and after being blocked, antibody solutions of different concentrations passed through the CMS chip at a fixed flow rate and bound to antigen for 2 min, followed by transfer to dissociation buffer for 6 min for determination of the dissociation rate. The kinetics were analyzed using a 1:1 binding model.

Assay [3] addresses T2, human PVRIG protein on the cell membrane surface (human, UniProt Q6DKI7 41-326).
T2 construct: Also used here for the natural PVRIG on NKG cells and human lymphocytes; also called 293T-human PVRIG cell line; PVRIG on NKG cell line
T2 sequence: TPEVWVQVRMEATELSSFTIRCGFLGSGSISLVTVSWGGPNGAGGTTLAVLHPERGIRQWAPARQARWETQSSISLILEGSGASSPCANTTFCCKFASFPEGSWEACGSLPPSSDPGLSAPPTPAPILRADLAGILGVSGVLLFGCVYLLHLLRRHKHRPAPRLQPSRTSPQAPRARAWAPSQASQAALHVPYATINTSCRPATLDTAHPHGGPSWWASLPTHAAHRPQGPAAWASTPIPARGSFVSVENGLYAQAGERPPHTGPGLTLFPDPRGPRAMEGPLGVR
Nature of the assay: flow cytometry on 293T-human PVRIG cells, AF647 goat anti-mouse IgG, percent positive cells. The procedure:
The activity of murine antibodies from different clones in binding to human PVRIG protein on the cell membrane surface was evaluated by flow cytometry. The experimental procedure was as follows:
The 293T-human PVRIG cell line was harvested, washed with 1×PBS and resuspended, the cells were counted. Then […] were placed into each 1.5 ml Ep tube, the respective murine antibody (Antibody 1, Antibody 2, Antibody 3, or Antibody 4) was added at different concentrations, the mixture was incubated at 4° C. for 30 min, then washed with 1×PBS, and centrifuged at 3,500 rpm for 5 min to harvest the cells. The cell pellet was resuspended in 100 μl of 1×PBS, a AF647-labeled goat anti-mouse IgG antibody (available from Biolegend) was added, the mixture was incubated at 4° C. for 30 min in the dark, followed by washing twice with 1×PBS and harvesting the cells by centrifugation at 3,500 rpm for 5 min. The cell pellet was resuspended with 200 μl of 1×PBS and measured using a flow cytometer (BD LSR II).
(Flow cytometry measures light scatter and fluorescence of single cells or particles in a stream.)

For assay [4], the target named is T2, human PVRIG protein on the cell …. Nature of the assay: flow cytometry on 293T-human PVRIG cells, AF647 mouse anti-human IgG-Fc, percent positive cells. The procedure:
The activity of the humanized antibodies in binding to human PVRIG was evaluated by flow cytometry in the experiment.
The 293T-human PVRIG cell line was harvested, and washed and resuspended with 1×PBS to count the cells. Then 2×10^5 cells were placed into each 1.5 ml Ep tube, the respective humanized antibody was added at different concentrations, the mixture was incubated at 4° C. for 30 min, then washed with 1×PBS, and centrifuged at 3,500 rpm for 5 min to harvest the cells. The cell pellet was resuspended in 100 μl of 1×PBS, a AF647-labeled mouse anti-human IgG-Fc antibody (available from Biolegend) was added, the mixture was incubated at 4° C. for 30 min in the dark, followed by washing twice with 1×PBS and harvesting the cells by centrifugation at 3,500 rpm for 5 min. The cell pellet was resuspended with 200 μl of 1×PBS and measured using a flow cytometer (BD LSR II), and the analysis statistical results were shown in FIG. 16. It can be seen that all the humanized antibodies were ablet to specifically bind to the human PVRIG protein on the cell membrane surface.

B1: Antibody 3 (antibody, V domains shown)
VH: EVQLQQSGPELVKPGASMKISCKASGYSFTAYTMNWVKQSHGKNLEWIGLINPYNGGTSYNQKFKGKATLTGDKSSSTAYMELLSVTSEDSAVYFCAREGNYYGSRGDFDYWGQGTTLTVSS
VL: DILLTQSPAILSVSPGERVSFSCRASQTIVTNILWYQQRTNGSPRLLIRYASESISGIPSRFSGSGSGTDFTLSINSVESEDIAHYYCQQSHSWPFTFGSGTKLEIK
notes: Murine monoclonal antibody from hybridoma ascites; also called murine antibody Antibody 3
For orientation: EC50 (read off the curve) means the concentration that produces a half-maximal response. The Kd is the free concentration of one partner at which half of the binding sites on the other are occupied at equilibrium, for simple one-to-one binding. Usually koff stands for the first-order rate constant of dissociation. By kon is commonly meant a measure of how fast the partners come together. Turning to B1, the “EC50 (read off the curve)” value in assay [1] is roughly 0.02 µg/mL. Further, in assay [2], the Kd was 0.99 nM, the off-rate constant (koff) was 8.82e-05 s⁻¹ and the on-rate constant (kon) was 89100 M⁻¹ s⁻¹. Moreover, the half-maximal effective concentration (EC50 (read off the curve)) in assay [3] is roughly 0.1 µg/mL.

B2: Antibody 4-hu4 (antibody, human IgG4 S228P, kappa, V domains shown)
VH: EVQLVQSGAEVKKPGSSVKVSCKASGGTFSSFSIEWVRQAPGQGLEWIGEILPGSNSTNYNEKFKGRVTFTADESTSTAYMELSSLRSEDTAVYYCSSYWFAYWGQGTLVTVSS
VL: DIVMTQSPDSLAVSLGERATINCKSSQSLLNSGNQKNYLAWYQQKPGQPPKLLIYGASTRESGVPDRFSGSGSGTDFTLTISSLQAEDVAVYYCQNAHSYPPTFGQGTKLEIKR
notes: Humanized Antibody 4; heavy chain IgG4 with S228P already in the entry
Take B2: the “EC50 (read off the curve)” value in assay [4] is roughly 0.02 µg/mL. For the same molecule, in assay [2], the Kd stood at 0.236 nM, the off-rate (koff) is 4.44e-05 s⁻¹ and the on-rate constant (kon) was determined as 188000 M⁻¹ s⁻¹.

B3: Antibody 4-hu5 (antibody, human IgG4 S228P, kappa, V domains shown)
VH: EVQLVQSGAEVKKPGSSVKVSCKASGGTFSSFSIEWVRQAPGQGLEWIGEILPGSNSTNYNEKFKGRVTFTADTSTNTAYMELSSLRSEDTAVYYCSSYWFAYWGQGTLVTVSS
VL: DIVMTQSPDSLAVSLGERATINCKSSQSLLNSGNQKNYLAWYQQKPGQPPKLLIYGASTRESGVPDRFSGSGSGTDFTLTISSLQAEDVAVYYCQNAHSYPPTFGQGTKLEIKR
notes: as for B2
For the molecule B3, in assay [2], the Kd amounted to 0.015 nM, the dissociation rate constant (koff) came out at 3.54e-06 s⁻¹ and the kon is 236000 M⁻¹ s⁻¹.

B4: Antibody 4-hu1 (antibody, human IgG4 S228P, kappa, V domains shown)
VH: EVQLVQSGAEVKKPGSSVKVSCKASGGTFSSFSIEWVRQAPGQGLEWMGEILPGSNSTNYNEKFKGRVTITADESTSTAYMELSSLRSEDTAVYYCARYWFAYWGQGTLVTVSS
VL: DIVMTQSPDSLAVSLGERATINCKSSQSLLNSGNQKNYLAWYQQKPGQPPKLLIYGASTRESGVPDRFSGSGSGTDFTLTISSLQAEDVAVYYCQNAHSYPPTFGQGTKLEIKR
notes: as for B2
With B4, in assay [2], the Kd stood at 0.118 nM, the koff stood at 2.32e-05 s⁻¹ and the association rate constant (kon) turned out to be 197000 M⁻¹ s⁻¹.

B5: Antibody 4-hu2 (antibody, human IgG4 S228P, kappa, V domains shown)
VH: EVQLVQSGAEVKKPGSSVKVSCKASGGTFSSFSIEWVRQAPGQGLEWMGEILPGSNSTNYNEKFKGRVTITADESTSTAYMELSSLRSEDTAVYYCSSYWFAYWGQGTLVTVSS
VL: DIVMTQSPDSLAVSLGERATINCKSSQSLLNSGNQKNYLAWYQQKPGQPPKLLIYGASTRESGVPDRFSGSGSGTDFTLTISSLQAEDVAVYYCQNAHSYPPTFGQGTKLEIKR
notes: as for B2
As for B5, in assay [2], the Kd is 0.239 nM, the koff is 6.38e-05 s⁻¹ and the kon amounted to 266000 M⁻¹ s⁻¹.

B6: Antibody 4-hu6 (antibody, human IgG4 S228P, kappa, V domains shown)
VH: EVQLVQSGAEVKKPGSSVKVSCKASGGTFSSFSIEWVRQAPGQGLEWIGEILPGSNSTNYNEKFKGKATFTADTSTNTAYMELSSLRSEDTAVYYCSSYWFAYWGQGTLVTVSS
VL: DIVMTQSPDSLAVSLGERATINCKSSQSLLNSGNQKNYLAWYQQKPGQPPKLLIYGASTRESGVPDRFSGSGSGTDFTLTISSLQAEDVAVYYCQNAHSYPPTFGQGTKLEIKR
notes: Humanized Antibody 4; heavy chain IgG4 with S228P already in the entry; also called Antibody 4-hub [sic]
As for B6, in assay [2], the Kd was no more than 0.00356 nM, the dissociation rate constant (koff) was no more than 1e-06 s⁻¹ and the kon was 281000 M⁻¹ s⁻¹.

B7: Antibody 4-hu7 (antibody, human IgG4 S228P, kappa, V domains shown)
VH: EVQLVQSGAEVKKPGSSVKVSCKASGYTFSSFSIEWVRQAPGQGLEWMGEILPGSNSTNYNEKFKGRVTITADESTSTAYMELSSLRSEDTAVYYCSSYWFAYWGQGTLVTVSS
VL: DIVMTQSPDSLAVSLGERATINCKSSQSLLNSGNQKNYLAWYQQKPGQPPKLLIYGASTRESGVPDRFSGSGSGTDFTLTISSLQAEDVAVYYCQNAHSYPPTFGQGTKLEIKR
notes: as for B2
As to B7, in assay [2], the Kd was no more than 0.00361 nM, the koff was no more than 1e-06 s⁻¹ and the kon came out at 277000 M⁻¹ s⁻¹.

B8: Antibody 4-hu3 (antibody, human IgG4 S228P, kappa, V domains shown)
VH: EVQLVQSGAEVKKPGSSVKVSCKASGGTFSSFSIEWVRQAPGQGLEWMGEILPGSNSTNYNEKFKGRVTFTADESTSTAYMELSSLRSEDTAVYYCSSYWFAYWGQGTLVTVSS
VL: DIVMTQSPDSLAVSLGERATINCKSSQSLLNSGNQKNYLAWYQQKPGQPPKLLIYGASTRESGVPDRFSGSGSGTDFTLTISSLQAEDVAVYYCQNAHSYPPTFGQGTKLEIKR
notes: as for B2
As to B8, in assay [2], the equilibrium dissociation constant (Kd) was 0.0916 nM, the koff is 1.95e-05 s⁻¹ and the kon is 212000 M⁻¹ s⁻¹.

B9: Antibody 4-hu8 (antibody, human IgG4 S228P, kappa, V domains shown)
VH: EVQLVQSGAEVKKPGSSVKVSCKASGYTFSSFSIEWVRQAPGQGLEWMGEILPGSNSTNYNEKFKGRVTFTADESTSTAYMELSSLRSEDTAVYYCSSYWFAYWGQGTLVTVSS
VL: DIVMTQSPDSLAVSLGERATINCKSSQSLLNSGNQKNYLAWYQQKPGQPPKLLIYGASTRESGVPDRFSGSGSGTDFTLTISSLQAEDVAVYYCQNAHSYPPTFGQGTKLEIKR
notes: as for B6
On to B9, for which the 50% effective concentration (EC50 (read off the curve)) in assay [4] is roughly 0.001 µg/mL. Besides, in assay [2], the Kd was no more than 0.00505 nM, the koff is no more than 1e-06 s⁻¹ and the kon is 198000 M⁻¹ s⁻¹.

B10: Antibody 2 (antibody, V domains shown)
VH: QVQLQQSGAELTKPGASVKISCKATGYTFSTFAIDWIKQRPGHGLAWIGEILPGGNNTNYNEKFKGKATFTADTSSNTAYMHLSSLTSEDSAVYYCSTYWFAYWGQGTLVTVSA
VL: DIVMTQSPSSLSVSAGEKVTMSCKSSQSLLNSGNQKNYLAWYQQKPGQPPKLLMYGASTRESGVPDRFTGSGSGTDFTLTISSVQAEDLAVYYCQNAHSYPPAFGAGTKLELK
notes: Murine monoclonal antibody from hybridoma ascites; also called murine antibody Antibody 2
On to B10, for which the “EC50 (read off the curve)” value in assay [1] is roughly 0.03 µg/mL. Also, in assay [2], the Kd was 1.51 nM, the koff was determined as 0.000137 s⁻¹ and the kon worked out at 90500 M⁻¹ s⁻¹. Also, in assay [3], the concentration giving a half-maximal response (EC50 (read off the curve)) was roughly 0.03 µg/mL.

B11: Antibody 1 (antibody, V domains shown)
VH: QVQLQQSGAELMKPGASVKISCKATGYTFSTFAIDWIKQRPGPGLAWIGEILPGINNTNYNEKFKGKATFTADTSSNTAYMHLSSLTSEDSAVYYCSTYWFAYWGQGTLVTVSA
VL: DIVMTQSPSSLSVSAGEKVTMTCKSSQSLLNSGNQKNYLAWYQQKPGQPPKLLMYGASTRESGVPDRFTGSGSGTDFTLTISSVQAEDLAVYYCQNAHSYPPTFGAGTKLELK
notes: Murine monoclonal antibody from hybridoma ascites, purified on Protein G; also called murine antibody Antibody 1
On to B11, for which, in assay [1], the “EC50 (read off the curve)” value is roughly 0.02 µg/mL. In assay [2], the dissociation constant (Kd) was 0.316 nM, the off-rate constant (koff) came out at 4.19e-05 s⁻¹ and the on-rate (kon) was 133000 M⁻¹ s⁻¹. The “EC50 (read off the curve)” value in assay [3] was roughly 0.02 µg/mL.
